Test results as given in the RNAGym collection of RNA variant scans (doi:10.1073/pnas.2313332121).
Fewer inactive variants are shown than the library holds.

B1: TPR 5TU (parent)
chain: GGAUCUUCUCGAUCUAACAAAAAAGACAAAUCUGCCACAAAGCUUGAGAGCAUCUUCGGAUGCAGAGGCGGCAGCCUUCGGUGGCGCGAUAGCGCCAACGUUCUCAACUAUGACACGCAAAACGCGUGCUCCGUUGAAUGGAGUUUAUCAUG

Variants of: B1
Experiment: polymerase ribozyme fitness, log enrichment relative to wild type (log ratio); higher = more active; in vitro selection for triplet polymerase activity
In short: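 The heterodimeric triplet polymerase ribozyme's subunits were each mutagenized into PCR-built libraries and transcribed. Every library was selected once, in triplicate, by annealing with a biotinylated primer, the partner subunit and triplets, incubating frozen at −7 °C, gel-excising extended constructs, capturing on streptavidin beads and running RT-PCR. Input and output libraries were Illumina-sequenced, with genotypes kept only at ≥10 input reads and ≥1 read per output. Fitness, from inverse-variance-weighted replicate averages, is the base-2 logarithm of genotype enrichment over wild-type enrichment.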

Row | Variant | polymerase ribozyme fitness (log ratio)
1 | GGAUCUUCUCGAUCUAACAAAAAAGACAAAUCUGCCACAAAGCUUGAGAGCAUCUUCGUAUGCAGAGGCGGCAGCCUUCGGUGGCGCGAGGGCGACAACGUUCUCAACUAUGACACGCAAAACGCCUGCUCCGUUGAAUGGAGUUGAUCAUG [G59U U90G A91G C95A G126C U146G] | ≤ -4.2
2 | GGAUCUUCUCGAUCUAACAAAAAAGACAAAUCUGCCACAAAGCUUGAGAGCAUCUUCGUAUGCAGAGGCGGCAGCCUUCGGUGGCGCUAUAGCGCCAACGUUCUCAACUAUGACACGCAAUACGCGAGCUCCGGUGAAUGGAGUUUAUCAUG [G59U G88U A121U U127A U134G] | ≤ -4.2
3 | GGAUCUUCUCGAUCUAACAAAAAAGACAAAUCUGCCACAAAGCUUGAGAGCAUCUUCGUAUGCAGAGACGGCAGCCUUCGGUAGCGCGUUAGCUCCAACGUUCUCAACUAUGACACGCAAAACGCGUUCUCCGUUGAAUGGAGUUUAUCAUG [G59U G68A G83A A89U G94U G128U] | ≤ -4.2
4 | GGAUCUUCUCGAUCUAACAAAAAAGACAAAUCUGCCACAAAGCUUGAGAGCAUCUUCGGCUGCAGAGGCGGCAGCCUUCGGUGGCGCGCUAGCACCAACGUUCUCAACUAUGACACGCAAAACGCGUGCUCCGUUGAAUGGAGUUUAUCAUG [A60C A89C G94A] | -1.69
5 | GGAUCUUCUCGAUCUAACAAAAAAGACAAAUCUGCCACAAAGCUUGAGAGCAUCUUCGUAUGCAGAGGCGGCAGCCUUCGGUGGCGCGAUAGCUCCAACGUUCUUAACUAUGACACGCAAAACUCGUGCUCCGUUGAAUGGACUUUAUCAUG [G59U G94U C105U G124U G143C] | -3.65
6 | GGAUCUUCUCGAUCUAACAAAAAAGACAAAUCUGCCACAAAGCUUGAGAGCAUCUUCGUAUGCAGAGGCGGCAGCCUUCGGUGUCGCGAUAGCGCCAACGUUCUCAACUAUGACACGCAAAACGCGUGCUCCGUUGAAUGGAGUUUAUCAUG [G59U G84U] | -2.72
7 | GGAUCUUCUCGAUCUAACAAAAAAGACAAAUCUGCCACAAAGCUUGAGAGCAUCUUCGUAUGCAGAGGCGGCAGCCUUCGGUGGCGCGAUAGCGCCAACGUUCUCAACUAUGACACGCAAAACGCGUGCUCCGUUGAAUGGAGUUUAGCAUG [G59U U148G] | -3.83
8 | GGAUCUUCUCGAUCUAACAAAAAAGACAAAUCUGCCACAAAGCUUGAGAGCAUCUUCGUAUGCAGAGGCGGCAGCCUUCGGUGGCGCGAUAGCGCCAACGUUCUCAACUAUGACACGCAAAACGCGUGCUCCGUUGAAUGGAGUUUACCAUG [G59U U148C] | -1.18
9 | GGAUCUUCUCGAUCUAACAAAAAAGACAAAUCUGCCACAAAGCUUGAGAGCAUCUUCGGCUGCAGAGGCGGCAGCUUUCGGUGGCGCUAUAGCGCCAACGUUCUCAACUAUGACAGGCAAAACGCGUGCUCCGUGGAAUGGGGUUUAGCAUG [A60C C76U G88U C116G U135G A142G U148G] | ≤ -4.2
10 | GGAUCUUCUCGAUCUAACAAAAAAGACAAAUCUGCCACAAAGCUUGAGAGCAUCUUCGGCUGCAGAGGCGGCAGCCUUCGGUGGAGCGAUAGCGCCAACGUUCUCAACUAUGACAAGCAAAACGCGUGCUCCGUUGAAUGGAGUUUAUCAUG [A60C C85A C116A] | -1.6
11 | GGAUCUUCUCGAUCUAACAAAAAAGACAAAUCUGCCACAAAGCUUGAGAGCAUCUUCGUAUGCAGAGGCGGCAGCCUUCGGUGGCGCGAUAGCGCCAACGUGCUCAACUAUGACACGCAAAACGCGUGCUCCGUUGAAUGGAGUUUAUCAUG [G59U U102G] | -3.26
12 | GGAUCUUCUCGAUCUAACAAAAAAGACAAAUCUGCCACAAAGCUUGAGAGCAUCUUCGGCUGCAGAGGCGGCAGCCUUUGGUGGCGCGAUAGCGCCAACGUAAUCAACUAUGACACGCAAAACGCGUGCUCCGUUGAAUGGGGUUUAUCAUG [A60C C79U U102A C103A A142G] | ≤ -4.2
13 | GGAUCUUCUCGAUCUAACAAAAAAGACAAAUCUGCCACAAAGCUUGAGAGCAUCUUCGUAUGCAGAGGCGGCAGCCUUCGGUGGCGCGAUAGCGCCAAUGUUCGCAACUAUGACACGCAAAACGCGUUCUCCGAUUAGUGGAGUUUAUCAUG [G59U C99U U104G G128U U134A G136U A138G] | ≤ -4.2
14 | GGAUCUUCUCGAUCUAACAAAAAAGACAAAUCUGCCACAAAGCUUGAGAGCAUCUUCGUAUGCAGAGGCGGCAGCCUUCGGUGGCGCGAUAGCACCAGCGUUCUCAACUAUGACACGCAAAACGCGUGCUCCGUUGAAUGGAGUUUAUCAUG [G59U G94A A98G] | -1.07
15 | GGAUCUUCUCGAUCUAACAAAAAAGACAAAUCUGCCACAAAGCUUGAGAGCAUCUUCGUAUGCAGAGGCGGCAGCCUUCGGUGGCGCGAUAGCGCCAACGUUCUCAACUAUGACACGCAAAACCCGUGCUCCGGUGAAUGGAGUUAAUCAUG [G59U G124C U134G U146A] | -3.17
16 | GGAUCUUCUCGAUCUAACAAAAAAGACAAAUCUGCCACAAAGCUUGAGAGCAUCUUCGUAUGCAGAGACGGCAGCCUCCGGUGGCGCGAUAGGGCCAACGUUCUCAACUAUGACACGCAAAACACGUGCUGCGUUGAAUGUAGUUUAUCAUG [G59U G68A U78C C93G G124A C131G G141U] | ≤ -4.2
17 | GGAUCUUCUCGAUCUAACAAAAAAGACAAAUCUGCCACAAAGCUUGAGAGCAUCUUCGUAUGCAGAGGCGGCAGCCUUCGGUGGCGCGAUAGAGCCAACGUUCUCAACUAUGACACGCAAAACGCGUGCUCCGUUGAAUGGAGUUUAUCAUU [G59U C93A G152U] | ≤ -4.2
18 | GGAUCUUCUCGAUCUAACAAAAAAGACAAAUCUGCCACAAAGCUUGAGAGCAUCUUCGUAUGCAGAGGCGGCAGCCUUCGGUGGCGCGAUAGCGCAAACGUUCUCAACUAUGACACGCAAAACGCGUGCUCCGUUGAAUGGAGUUUAUCAUG [G59U C96A] | -0.703
19 | GGAUCUUCUCGAUCUAACAAAAAAGACAAAUCUGCCACAAAGCUUGAGAGCAUCUUCGUAUGCAGAGGCGGCAGCCUUCGGUGGCGCGAUAGCGCUAACGUUCUCAACUAUGACACGCAAAACGCGUGCUCCGUUGAAUGGAGUUUAUCAUG [G59U C96U] | -0.292
